In US20050070692A1 (published 2005):

How the values were obtained:
[1] = biological target: T1, human IL-1β (human, UniProt P01584 117-269); experiment: competition ELISA on coated human IL-1β against biotinylated Mu007, Exp. B
T1 construct: mature; also called mature human IL-1β; Interleukin-1β
Experimental: (§1) Wells of 96-well ELISA plates (Nunc-lmmuno plate, Cat # 439454, NalgeNunc) were coated with 100 μL of 0.5. μg/mL of human IL-1β in 0.2M sodium carbonate-bicarbonate buffer (pH 9.4) overnight at 4° C., washed with Wash Buffer, blocked with Superblock blocking buffer for 30 min at 37° C., and washed again with Wash Buffer. A mixture of biotinylated Mu007 (0.16 μg/mL final concentration) and competitor antibody (Mu007, Hu007, or Hu007 analogs starting at 100 μg/mL final concentration and serial 3-fold dilutions) in ELISA Buffer were added in triplicate in a final volume of 100 μL per well. As a no-competitor control, 100 μL of 0.16 μg/mL biotinylated Mu007 was used. As a background control, 100 gLL of ELISA Buffer was used. ELISA plates were incubated at 37° C. for 2 hr. After washing the wells with Washing Buffer, 100 μL of 1 μg/mL HRP-conjugated streptavidin (Jackson ImmunoResearch) was added to each well. ELISA plates were incubated at room temperature for 30 min and washed with Washing Buffer. For color development, 100 μL/well of ABTS substrate was added. Color development was stopped by adding 100 μL/well of 2% oxalic acid. Absorbance was read at 415 nm.
(§2) Mu007, Hu007 and Hu007 analogs competed with biotinylated Mu007 in a concentration-dependent manner. The IC₅₀ values of Mu007 and Hu007 in three independent ELISA competition experiments, obtained using the computer software Prism (GraphPad Software Inc., San Diego, Calif.) are shown in Table 1. The relative binding of Hu007 was on average 89% of Mu007.

[2] = biological target: T1, human IL-1β; experiment: competition ELISA on coated human IL-1β against biotinylated Mu007, Exp. A
Experimental: as §1, §2

[3] = biological target: T1, human IL-1β; experiment: BIAcore, antibody captured on protein A CM5 chip, human IL-1β flowed
Experimental: Affinities and specificities of several Hu007 analogs were determined using BIAcore measurements. BIAcore™ is an automated biosensor system that measures molecular interactions. (Karlsson, et al. (1991) J. Immunol. Methods 145: 229-240). In these experiments antibody was immobilized at low density on a BIAcore™ chip. Ethyl-dimethylaminopropyl-carbodiimide (EDC) was used to couple reactive amino groups to protein A to a flow cell of a carboxy-methyl (CM5) BIAcore™ sensor chip. Protein A was diluted in sodium acetate buffer, pH 4.5, and immobilized on a flow cell of a CM5 chip using EDC to yield approximately 1000 response units. Unreacted sites were blocked with ethanolamine. A flow rate of 60 μl/min was used. Multiple binding/elution cycles were performed by injection of 10 μl of a 5 μg/mL Hu007 solution, and heavy chain CDR2 analogs N55D, N55S, N55Q, G56A, and G56V, followed by human IL-1β at decreasing concentrations for each cycle (e.g. 1500, 750, 375, 188, and […]). Elution was performed with glycine-HCl, pH 1.5. BIAevaluation™ was used to analyze the kinetic data. Table 5 depicts the affinities of Hu007 and the various Hu007 analogs for human IL-1β.

[4] = biological target: T1, human IL-1β; experiment: competition ELISA on coated human IL-1β against biotinylated Mu007, average of three experiments
Experimental: as §1
Mu007, Hu007 and Hu007 analogs competed with biotinylated Mu007 in a concentration-dependent manner. […]

- Hu007/Mu007 × 100 (IC50 ratio, relative binding against Mu007) [1]: 88%
- IC50 [1]: 0.35 µg/mL
- Hu007/Mu007 × 100 (IC50 ratio, relative binding against Mu007) [2]: 98%
- IC50 [2]: 0.39 µg/mL
- Kd [3]: 0.0105 nM
- IC50 [4]: 0.35 µg/mL
B1: humanized antibody Hu007 (antibody, human IgG1, kappa, V domains shown)
VH: QVQLVQSGAEVKKPGASVKVSCKVSGYTFSRYWIEWVRQAPGKGLEWIGEILPGNGNINYNEKFKGKATITADTSTDTAYMELSSLRSEDTAVYYCSTIYYDYDQGFTYWGQGTLVTVSS
VL: DIQMTQSPSSLSASVGDRVTITCKASQDIDRYLSWFQQKPGKAPKSLIYRVKRLVDGVPSRFSGSASGTDYTLTISSLQPEDFATYYCLQYDEFPYTFGQGTKLEIKR
notes: Human IgG1 kappa; also called WT; Hu007 WT
